The target of the assay is IL13Rα2 (human) (UniProt Q14627). The assay can be described thus: cell-based or functional assay.

One substance from US20160230226A1 can be followed below.

Chain of UniProt Q14627 (Q14627 27-380): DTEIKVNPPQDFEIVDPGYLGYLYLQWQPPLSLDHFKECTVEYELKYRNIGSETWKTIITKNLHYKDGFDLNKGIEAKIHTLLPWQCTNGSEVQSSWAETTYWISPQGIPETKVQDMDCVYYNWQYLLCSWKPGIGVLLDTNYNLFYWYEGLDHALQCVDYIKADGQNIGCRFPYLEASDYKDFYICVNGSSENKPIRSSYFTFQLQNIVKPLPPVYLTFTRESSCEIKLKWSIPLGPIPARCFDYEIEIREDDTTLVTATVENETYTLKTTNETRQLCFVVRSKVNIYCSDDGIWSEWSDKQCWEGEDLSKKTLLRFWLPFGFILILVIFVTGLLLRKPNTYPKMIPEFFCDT

“IL-13 (from UniProt P35225 35-146) (ligand)” displayed an IL-13 concentration needed for the same CCL26 or periostin gene induction in IMR90 cells pre-stimulated with TNFα (elevated IL13Rα2) versus not pre-stimulated of 10 fold.
